How the values were obtained:
ArsR1 [1] = target: T1, ArsR1 (Paracoccus denitrificans, UniProt A1B6S3); assay: size-exclusion chromatography: dimer to monomer; also EMSA and fluorescence anisotropy: release from operator DNA; assay type: binding; settings: 0.1 mM arsenite, 10 mM MOPS/0.1 M NaCl/15% glycerol pH 7.5
T1 construct: gene Pden_3136

[2] = system: Cc1cc2nc3c(=O)[nH]c(=O)nc-3n(C[C@H](O)[C@H](O)[C@H](O)COP(=O)(O)O)c2cc1C; assay: purified protein; settings: NADPH varied 5-150 μM, 0.1 M sodium phosphate pH 7.0, 30 °C, sequential ternary-complex mechanism
[3] = system: NC(=O)C1=CN([C@@H]2O[C@H](COP(=O)(O)OP(=O)(O)OC[C@H]3O[C@@H](n4cnc5c(N)ncnc54)[C@H](OP(=O)(O)O)[C@@H]3O)[C@@H](O)[C@H]2O)C=CC1; assay: purified protein; settings: co-substrate FMN (varied), 0.1 M sodium phosphate pH 7.0, 30 °C, sequential ternary-complex mechanism
[4] = target: Paracoccus denitrificans ArsH (Pden_3133 protein), recombinant N-His6-ArsH (Paracoccus denitrificans); assay: crystal structure; X-ray, 2.6 Å; sitting-drop vapor diffusion at 25 °C; molecular replacement with S. flexneri ArsH; four monomers in the asymmetric unit; interfaces analysed with PISA
[5] = target: Paracoccus denitrificans ArsR1 (product of pden_3136), recombinant with N-terminal hexahistidine tag (Paracoccus denitrificans); assay: SEC; Superose 12, 10 mM MOPS/0.1 M NaCl/15% glycerol pH 7.5, 0.5 mL/min; 500 μL of 40 μM ArsR1 loaded, untreated; calibrated with ribonuclease A, chymotrypsinogen A, ovalbumin and albumin
ArsR1 [6] = target: T2, ArsR1 (Paracoccus denitrificans, UniProt A1B6S3 1-119); assay: fluorescence anisotropy; Anisotropy: 10 mM MOPS, 0.1 M NaCl, 15% glycerol, pH 7.5 (Methods; Figure 9 legend says pH 7.0), 30 °C, 25 nM DNA; EMSA: 10 mM Tris-HCl, 50 mM NaCl, 0.5 mM EDTA, pH 8.0, room temperature, 10 µM DNA and 10 µM ArsR; settings: protein: recombinant; tags: N-terminal His6 (pET100/D-TOPO); chain copies: 2; label: 5'-FAM on strand 1; blunt
T2 sequence: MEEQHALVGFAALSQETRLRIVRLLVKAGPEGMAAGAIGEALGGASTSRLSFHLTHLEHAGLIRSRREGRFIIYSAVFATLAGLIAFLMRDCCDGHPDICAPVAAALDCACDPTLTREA

ArsR2 = target: T3, ArsR2 (Paracoccus denitrificans, UniProt A1B7C2 1-120); assay: as above; settings: protein: recombinant; tags: N-terminal His6 (pET100/D-TOPO); chain copies: 2; label: 5'-FAM on strand 1; blunt
T3 sequence: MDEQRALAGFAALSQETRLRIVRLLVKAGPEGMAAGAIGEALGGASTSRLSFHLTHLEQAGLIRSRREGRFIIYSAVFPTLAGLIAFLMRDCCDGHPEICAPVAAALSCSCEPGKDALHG

In the case of O[As](O)O [sodium arsenite], the “size-exclusion chromatography: dimer to monomer; also EMSA and fluorescence anis” value (ArsR1 [1]) is reported as “arsenite or diamide-treated ArsR eluted at the monomer size”.

Work on “ArsH (Pden_3133; N-His6-ArsH) (Paracoccus denitrificans PD1222)” yielded a Km [2] of 9.3 ± 0.7 µM, a kcat [2] of 12.6 ± 0.4 s⁻¹ and a Km [3] of 12 ± 2 µM. For the same molecule, the kcat [3] was 12.6 ± 0.4 s⁻¹.

“Paracoccus denitrificans ArsH (Pden_3133 protein), recombinant N-His6-ArsH (from UniProt A0A9X7N4T4 1-238) (enzyme)” showed a stoichiometry N [4] of 4.

For “Paracoccus denitrificans ArsR1 (product of pden_3136), recombinant with N-terminal hexahistidine tag (natural protein)”, the stoichiometry N [5] was 2.

B1: PDNA1 (dsDNA)
DNA 1: CTCAACATATCTTGAGAGGTTGATTCG
DNA 2: CGAATCAACCTCTCAAGATATGTTGAG
B1 gave a Kd (ArsR1 [6]) of 9 ± 1 nM and a Kd (ArsR2) of 130 ± 20 nM.

B2: PDNA2 (dsDNA)
DNA 1: ATCAACATATCTTGAGAGGTTGATTCG
DNA 2: CGAATCAACCTCTCAAGATATGTTGAT
In the case of B2, the Kd (ArsR1 [6]) is reported as 26 ± 4 nM and the Kd (ArsR2) is reported as 140 ± 10 nM.
